Measurements reported in the Human Domainome abundance scans (Beltran et al. 2025).
± gives the uncertainty stated by the source.

B1: Bromodomain adjacent to zinc finger domain protein 2B, residues 1927 to 1982; numbered along this chain, Q9UIF8 (parent)
chain: KSIMKVYCQICRKGDNEELLLLCDGCDKGCHTYCHRPKITTIPDGDWFCPACIAKA

Variants of: B1
Test: abundance fitness (aPCA) (normalised: wild type 0, dead -1); higher = more abundant; growth selection in yeast, the domain comes from the species named
Settings: Homo sapiens

Compared with KSIMKVYCQICRKGDNEELLLLCDGCDKGCHTYVHRPKITTIPDGDWFCPACIAKA [C34V], KSIMKVYCQICRKGDNEELLLLCDGCDKGCHTYGHRPKITTIPDGDWFCPACIAKA [C34G] is higher in abundance fitness: -0.771 ± 0.071 for the first, -0.495 ± 0.07 for the second.

KSIMKVYCQICRKGDNEELLLLCDGCDKGCHTYIHRPKITTIPDGDWFCPACIAKA [C34I] and KSIMKVYCQICRKGDNEELLLLCDGCDKGCHTYFHRPKITTIPDGDWFCPACIAKA [C34F] are within error of each other in abundance fitness: -0.961 ± 0.19 for the first, -0.766 ± 0.12 for the second.

KSIMKVYCQICRKGDNEELLLLCDGCDKGCHTYAHRPKITTIPDGDWFCPACIAKA [C34A] and KSIMKVYCQICRKGDNEELLLLCDGCDKGCHTYNHRPKITTIPDGDWFCPACIAKA [C34N] are within error of each other in abundance fitness: -0.688 ± 0.088 for the first, -0.818 ± 0.19 for the second.

KSIMKVYCQICRKGDNEELLLLCDGCDKGCHTYTHRPKITTIPDGDWFCPACIAKA [C34T] and KSIMKVYCQICRKGDNEELLLLCDGCDKGCHTYSHRPKITTIPDGDWFCPACIAKA [C34S] are within error of each other in abundance fitness: -0.694 ± 0.1 for the first, -0.584 ± 0.08 for the second.

KSIMKVYCQICRKGDNEELLLLCDGCDKGCHTYMHRPKITTIPDGDWFCPACIAKA [C34M] and KSIMKVYCQICRKGDNEELLLLCDGCDKGCHTYKHRPKITTIPDGDWFCPACIAKA [C34K] are within error of each other in abundance fitness: -0.672 ± 0.095 for the first, -0.561 ± 0.11 for the second.

Compared with KSIMKVYCQICRKGDNEELLLLCDGCDKGCHTYDHRPKITTIPDGDWFCPACIAKA [C34D], KSIMKVYCQICRKGDNEELLLLCDGCDKGCHTYWHRPKITTIPDGDWFCPACIAKA [C34W] is lower in abundance fitness: -0.63 ± 0.14 for the first, -0.895 ± 0.11 for the second.

KSIMKVYCQICRKGDNEELLLLCDGCDKGCHTYLHRPKITTIPDGDWFCPACIAKA [C34L] and KSIMKVYCQICRKGDNEELLLLCDGCDKGCHTYQHRPKITTIPDGDWFCPACIAKA [C34Q] are within error of each other in abundance fitness: -0.763 ± 0.079 for the first, -0.731 ± 0.12 for the second.

Going from KSIMKVYCQICRKGDNEELLLLCDGCDKGCHTYHHRPKITTIPDGDWFCPACIAKA [C34H] to KSIMKVYCQICRKGDNEELLLLCDGCDKGCHTYPHRPKITTIPDGDWFCPACIAKA [C34P], the abundance fitness falls from -0.216 ± 0.16 to -0.675 ± 0.11.

KSIMKVYCQICRKGDNEELLLLCDGCDKYCHTYCHRPKITTIPDGDWFCPACIAKA [G29Y] and KSIMKVYCQICRKGDNEELLLLCDGCDKVCHTYCHRPKITTIPDGDWFCPACIAKA [G29V] are within error of each other in abundance fitness: -0.093 ± 0.15 for the first, 0.002 ± 0.079 for the second.

KSIMKVYCQICRKGDNEELLLLCDGCDKRCHTYCHRPKITTIPDGDWFCPACIAKA [G29R] and KSIMKVYCQICRKGDNEELLLLCDGCDKTCHTYCHRPKITTIPDGDWFCPACIAKA [G29T] are within error of each other in abundance fitness: -0.075 ± 0.064 for the first, -0.088 ± 0.11 for the second.

KSIMKVYCQICRKGDNEELLLLCDGCDKSCHTYCHRPKITTIPDGDWFCPACIAKA [G29S] and KSIMKVYCQICRKGDNEELLLLCDGCDKWCHTYCHRPKITTIPDGDWFCPACIAKA [G29W] are within error of each other in abundance fitness: -0.019 ± 0.074 for the first, -0.147 ± 0.079 for the second.

KSIMKVYCQICRKGDNEELLLLCDGCDKGRHTYCHRPKITTIPDGDWFCPACIAKA [C30R] and KSIMKVYCQICRKGDNEELLLLCDGCDKGIHTYCHRPKITTIPDGDWFCPACIAKA [C30I] are within error of each other in abundance fitness: -0.023 ± 0.064 for the first, 0.15 ± 0.14 for the second.

KSIMKVYCQICRKGDNEELLLLCDGCDKGQHTYCHRPKITTIPDGDWFCPACIAKA [C30Q] and KSIMKVYCQICRKGDNEELLLLCDGCDKGLHTYCHRPKITTIPDGDWFCPACIAKA [C30L] are within error of each other in abundance fitness: 0.024 ± 0.11 for the first, -0.064 ± 0.068 for the second.

KSIMKVYCQICRKGDNEELLLLCDGCDKGVHTYCHRPKITTIPDGDWFCPACIAKA [C30V] and KSIMKVYCQICRKGDNEELLLLCDGCDKGYHTYCHRPKITTIPDGDWFCPACIAKA [C30Y] are within error of each other in abundance fitness: -0.071 ± 0.074 for the first, 0.004 ± 0.11 for the second.

KSIMKVYCQICRKGDNEELLLLCDGCDKGWHTYCHRPKITTIPDGDWFCPACIAKA [C30W] and KSIMKVYCQICRKGDNEELLLLCDGCDKGTHTYCHRPKITTIPDGDWFCPACIAKA [C30T] are within error of each other in abundance fitness: 0.031 ± 0.075 for the first, 0.039 ± 0.096 for the second.

First: KSIMKVYCQICRKGDNEELLLLCDGCDKGDHTYCHRPKITTIPDGDWFCPACIAKA [C30D]
Second: KSIMKVYCQICRKGDNEELLLLCDGCDKGEHTYCHRPKITTIPDGDWFCPACIAKA [C30E]
The abundance fitness of the first is lower: -0.238 ± 0.11 for the first, 0.034 ± 0.083 for the second.

KSIMKVYCQICRKGDNEELLLLCDGCDKGKHTYCHRPKITTIPDGDWFCPACIAKA [C30K] and KSIMKVYCQICRKGDNEELLLLCDGCDKGHHTYCHRPKITTIPDGDWFCPACIAKA [C30H] are within error of each other in abundance fitness: -0.076 ± 0.099 for the first, -0.016 ± 0.15 for the second.

KSIMKVYCQICRKGDNEELLLLCDGCDKGNHTYCHRPKITTIPDGDWFCPACIAKA [C30N] and KSIMKVYCQICRKGDNEELLLLCDGCDKGAHTYCHRPKITTIPDGDWFCPACIAKA [C30A] are within error of each other in abundance fitness: -0.208 ± 0.13 for the first, -0.101 ± 0.08 for the second.

KSIMKVYCQICRKGDNEELLLLCDGCDKGFHTYCHRPKITTIPDGDWFCPACIAKA [C30F] and KSIMKVYCQICRKGDNEELLLLCDGCDKGMHTYCHRPKITTIPDGDWFCPACIAKA [C30M] are within error of each other in abundance fitness: -0.002 ± 0.11 for the first, 0.069 ± 0.09 for the second.

Going from KSIMKVYCQICRKGDNEELLLLCDGCDKGSHTYCHRPKITTIPDGDWFCPACIAKA [C30S] to KSIMKVYCQICRKGDNEELLLLCDGCDKGPHTYCHRPKITTIPDGDWFCPACIAKA [C30P], the abundance fitness falls from -0.011 ± 0.077 to -0.459 ± 0.12.

Compared with KSIMKVYCQICRKGDNEELLLLCDGCDKGGHTYCHRPKITTIPDGDWFCPACIAKA [C30G], KSIMKVYCQICRKGDNEELLLLCDGCDKGCATYCHRPKITTIPDGDWFCPACIAKA [H31A] is lower in abundance fitness: -0.009 ± 0.063 for the first, -0.683 ± 0.083 for the second.

KSIMKVYCQICRKGDNEELLLLCDGCDKGCKTYCHRPKITTIPDGDWFCPACIAKA [H31K] and KSIMKVYCQICRKGDNEELLLLCDGCDKGCCTYCHRPKITTIPDGDWFCPACIAKA [H31C] are within error of each other in abundance fitness: -0.5 ± 0.13 for the first, -0.483 ± 0.13 for the second.

First: KSIMKVYCQICRKGDNEELLLLCDGCDKGCQTYCHRPKITTIPDGDWFCPACIAKA [H31Q]
Second: KSIMKVYCQICRKGDNEELLLLCDGCDKGCDTYCHRPKITTIPDGDWFCPACIAKA [H31D]
The abundance fitness of the first is lower: -0.622 ± 0.11 for the first, -0.386 ± 0.12 for the second.

In the case of KSIMKVYCQICRKGDNEELLLLCDGCDKGCTTYCHRPKITTIPDGDWFCPACIAKA [H31T], the abundance fitness is reported as -0.446 ± 0.1.
